Columns and labels:
cardiomyocytes = test: Protein synthesis ([3H]phenylalanine incorporation) in cardiomyocytes; assay type: cell-based, rat; conditions: rPMT 400 ng/ml or NE 10 μM, 48 hr, serum-free
Method: rPMT mimics the effect of norepinephrine to promote cardiomyocyte hypertrophy. Cardiomyocytes were cultured in serum-free medium without or with rPMT (400 ng/ml) or norepinephrine (NE, 10 μM) for 48 hr. Cardiomyocytes were fixed, permeabilized, and stained with monoclonal anti-α-actinin sarcomeric (Panel A, magnification×100) or subjected to Northern blot analysis for measurements of steady-state ANF mRNA expression (Panel B). Effects of rPMT (black bars) and NE (gray bars) vs. vehicle (white bars) on sarcomeric organization (Panel C), cell size (Panel D), and protein synthesis (Panel E) are illustrated (n=3 for each).
As a second index of cardiomyocyte growth, relative rates of protein synthesis were measured as radiolabeled phenylalanine incorporation into cell protein. Cells were stimulated in serum-free medium with agonists (or vehicle as control) for 48 hr at 37° C. The medium was replaced with serum-free medium containing [^3H]phenylalanine (0.1 μCi/ml) and non-radioactive phenylalanine (0.3 mM, to minimize variations in the specific activity of the precursor pool responsible for protein synthesis) during the final 24 hr of stimulation. Cells were rinsed with PBS and incubated in 10% trichloroacetic acid for 30 min on ice. […] Aliquots of the SDS-soluble protein were counted in 5 ml of scintillant.

JNK = test: Phospho-JNK Western blot in cardiomyocytes; assay type: cell-based, rat
Method: rPMT promotes the activation of ERK1/2, JNK and p38-MAPK cascades. Incubations were for 24 hr in the presence of the indicated concentrations of rPMT. PMA (100 nM, 5 min) and sorbitol ([…], 5 min) were included as positive controls. Cell lysates were subjected to SDS-PAGE followed by Western blotting as described in Methods below. Phosphorylated forms of ERK1/2 (A), p38 MAP kinase (B) or JNK (C) were detected by specific anti-phospho-ERK1/2, -p38 MAP kinase or -JNK antibodies, respectively. Blots were stripped and subjected to immunoblot analysis with total ERK1/2 or p38 MAP kinase to normalize for minor variations in protein loading (Panels A and B). Top: representative autoradiograms (with each lane from a single gel exposed for the same duration). Bottom: quantification of each series of experiments (n=3).
(§1) Specific immunoreactivity for individual PKC isoforms was quantified according to methods described previously. For assays of MAPKs and AKT, cells were exposed to test agents as indicated in individual experimental protocols, washed three times with ice-cold calcium/magnesium-free Dulbecco's PBS (pH 7.1), scraped into ice-cold extraction buffer [20 mM β-glycerophosphate pH 7.5, 20 mM sodium fluoride, 2 mM EDTA, 0.2 mM sodium vanadate, 10 μg/ml aprotinin, 25 μg/ml leupeptin, 50 μg/ml PMSF, and 0.3% (v/v) β-mercaptoethanol], lysed by sonication, and centrifuged at 10,000 g for 10 min at 4° C. The supernatant was diluted in SDS-PAGE sample buffer, boiled for 5 min, and stored at −70° C. Western blot analysis was performed with antibodies that are selective for the phosphorylated (activated) forms of ERK1/2, p38-MAPK, JNK, AKT, and pan-PKC according to manufacturer's instructions. For each panel in each Figure, the results are from a single gel exposed for a uniform duration. Bands were detected by enhanced chemiluminescence and blots were quantified by laser scanning densitometry.

PKC-ε = target: T1, PKC-ε (Rattus norvegicus, UniProt P09216); test: Western blot with anti-phospho-PKC antibody in cardiomyocytes; assay type: cell-based; conditions: 400 ng/ml, 24 hr
T1 construct: endogenous in cells; host or cells: cultured neonatal rat ventricular cardiomyocytes
T1 sequence (P09216 1-737): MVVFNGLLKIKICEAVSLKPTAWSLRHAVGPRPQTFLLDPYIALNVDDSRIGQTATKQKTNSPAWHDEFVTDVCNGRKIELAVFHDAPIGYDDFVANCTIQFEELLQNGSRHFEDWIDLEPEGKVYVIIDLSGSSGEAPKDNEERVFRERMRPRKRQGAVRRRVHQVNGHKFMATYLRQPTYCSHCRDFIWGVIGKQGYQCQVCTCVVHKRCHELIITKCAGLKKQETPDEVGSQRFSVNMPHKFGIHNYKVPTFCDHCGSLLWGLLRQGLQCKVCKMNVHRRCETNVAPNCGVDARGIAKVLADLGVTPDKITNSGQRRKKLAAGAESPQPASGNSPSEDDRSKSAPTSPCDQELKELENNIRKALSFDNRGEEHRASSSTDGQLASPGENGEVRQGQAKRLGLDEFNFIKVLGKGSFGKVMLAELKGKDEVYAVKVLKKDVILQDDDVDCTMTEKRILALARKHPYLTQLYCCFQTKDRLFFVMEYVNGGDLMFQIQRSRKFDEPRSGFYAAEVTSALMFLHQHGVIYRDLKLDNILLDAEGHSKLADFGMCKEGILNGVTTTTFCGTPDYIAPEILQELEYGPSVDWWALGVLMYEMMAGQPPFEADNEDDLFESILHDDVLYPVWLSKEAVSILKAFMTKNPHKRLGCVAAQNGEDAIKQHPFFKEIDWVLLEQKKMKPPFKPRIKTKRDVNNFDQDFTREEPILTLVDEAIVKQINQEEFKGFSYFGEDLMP
Method: (§2) rPMT selectively activates nPKC isoforms. Cardiomyocyte cultures were incubated in culture medium without or with NE (10 μM), rPMT (400 ng/ml) or PMA (100 nM) for 24 hr (Panels A and C) or 5 min (Panel B). Soluble extracts were prepared and separated by SDS-PAGE followed by immunodetection of total PKC isoform abundance with antibodies that are specific for the individual PKC isoforms (Panel A), or phosphorylated forms of PKC (largely PKCε) with a pan-phospho-PKC antibody (Panels B and C), as described in Methods below. GF109203 was included at 5 μM 30 min prior to stimulation as indicated.
as §1, with “Western blot analysis was performed with antibodies that are selective for the phosphorylated (activated) forms of ERK1/2, p38-MAPK, JNK, AKT, and pan-PKC according to manufacturer's instructions. For each panel in each Figure, the results are from a single gel exposed for a uniform duration.” left out

PKC isoforms = test: Immunoblot of PKC isoform partitioning and down-regulation in cardiomyocytes; assay type: cell-based, rat; conditions: 400 ng/ml, early time points 30 min-2 hr
Method: as §2, with “Cardiomyocyte cultures were incubated in culture medium without or with NE (10 μM), rPMT (400 ng/ml) or PMA (100 nM) for 24 hr (Panels A and C) or 5 min (Panel B).” left out
Cells were maintained in culture in the presence of 10% FCS for 96 hr and then switched to serum-free medium for 24 hr prior to the addition of agonists as indicated. For PKC, extracts were prepared and subjected to SDS-PAGE to resolve individual isoforms according to methods described previously (14).
Specific immunoreactivity for individual PKC isoforms was quantified according to methods described previously. […] Bands were detected by enhanced chemiluminescence and blots were quantified by laser scanning densitometry.

B1: rPMT: recombinant Pasteurella multocida toxin, a Gαq agonist used as pharmacological probe (protein, UniProt P17452 1-1285, looked up)
Dermonecrotic toxin: MKTKHFFNSDFTVKGKSADEIFRRLCTDHPDKQLNNVKWKEVFINRFGQMMLDTPNPRKIVEKIINEGLEKQGLKNIDPETTYFNIFSSSDSSDGNVFHYNSLSESYRVTDACLMNIFVERYFDDWDLLNSLASNGIYSVGKEGAYYPDHDYGPEYNPVWGPNEQIYHSRVIADILYARSVWDEFKKYFMEYWQKYAQLYTEMLSDTFLAMAIQQYTRQTLTDEGFLMVCNTYYGNKEEVQITLLDIYGYPSTDIICIEQKGLPTPKVILYIPGGTQPFVEFLNTDDLKQWIAWHLKDNKHMVAFRKHFSLKQRQEGETFTGIDKALQYIAEESPEWPANKYILYNPTHLETENLFNIMMKRTEQRMLEDSDVQIRSNSEATRDYALSLLETFISQLSAIDMLVPAVGIPINFALSATALGLSSDIVVNGDSYEKRKYGIGSLVQSALFTGINLIPVISETAEILSSFSRTEEDIPAFFTEEQALAQRFEIVEEELHSISPDDPPREITDENLHKIRLVRLNNENQPLVVLRRLGGNKFIRIEPITFQEIKGSLVSEVINPVTNKTYYVSNAKLLGGSPYSPFRIGLEGVWTPEVLKARASVIGKPIGESYKRILAKLQRIHNSNILDERQGLMHELMELIDLYEESQPSSERLNAFRELRTQLEKALYLPEMEALKKQILQIPNKGSGAARFLLRTAMNEMAGKTSESTADLIRFALQDTVISAPFRGYAGAIPEAIDFPVKYVIEDISVFDKIQTNYWELPAYESWNEGSNSALLPGLLRESQSKGMLSKCRIIENSLYIGHSYEEMFYSISPYSNQVGGPYELYPFTFFSMLQEVQGDLGFEQAFATRNFFNTLVSDRLSLMENTMLLTESFDYTPWDAIYGDINYDEQFAAMSINERIEKCMNTYRGVAFQNSSKSIDFFLNNLTTFIDNGLTEIAISDLPYDIVQQEISQFLQGSNEWKTLDAMLFNLDKGDINGAFRKLLQSAKDNNIKFRAIGHSDNSVPPFNNPYKSLYYKGNIIAEAIEKLDREGQKFVVFADSSLLNSTPGTGRPMPGLVQYLKIPATVVDSDGAWQFLPDVASSRVPIEVTELENWQVLTPPQGKILGLKQFKLTAGFPTEQSRLPLLENSVSEDLREELMQKIDAIKNDVKMNSLVCMEAGSCDSVSPKVAARLKDMGLEAGMGASITWWRREGGMEFSHQMHTTASFKFAGKEFAVDASHLQFVHDQLDTTILILPVDDWALEIAQRNRAINPFVEYVSKTGNMLALFMPPLFTKPRLTRAL
Question: What does the source list for B1?
Answer: [3H]phenylalanine incorporation (protein synthesis) (cardiomyocytes): enhance [^3H]phenylalanine incorporation; expression of total JNK protein (JNK): does not significantly alter; signaling through the JNK cascade (phosphorylation of terminal kinase) (JNK; 24 hr, indicated concentrations): dose-dependent increases; time at which JNK activation is detectable (JNK; increased progressively for 24 hr): 1 h; magnitude of JNK activation (JNK; rPMT 24 hr, sorbitol 5 min positive control): more modest; PKC-ε phosphorylation (PKC-ε): enhanced; partitioning of PKC isoforms between soluble and particulate fractions (PKC isoforms): does not detectably alter

Source: US20030134774A1, “Methods for inhibiting cardiac disorders” (priority 2001, published 2003)
